Measurements from patent publication US20230265151A1, “GIP/GLP1 CO-AGONIST COMPOUNDS” (priority 2020, published 2023).
Where two headings read alike, the source gives them in different places. *1 amine or outer side, *2 acyl side, *3 side chain or, on linkers, in order; H or OH if unused. Where no end group is shown, it is not given here. Side-chain parts run from the residue outwards. [ ]: non-standard residue; d: D form. The star is where a group is joined. Undecanoyl(11-OPh(4-COOH)) = O=C(O)c1ccc(OCCCCCCCCCCC(=O)*)cc1; Decanoyl(10-(4-HOOC-PhO)) = O=C(O)c1ccc(OCCCCCCCCCC(=O)*)cc1; αMePhe(2-F) = C[C@](N)(Cc1ccccc1F)C(=O)O; γGlu = O=C(O)[C@H](CCC(=O)[*:2])N[*:1]; C14 diacid = O=C(O)CCCCCCCCCCCCC(=O)*; αMeY = C[C@](N)(Cc1ccc(O)cc1)C(=O)O; αMeL = CC(C)C[C@](C)(N)C(=O)O; αMeS = C[C@](N)(CO)C(=O)O; Orn = NCCC[C@H](N)C(=O)O; AEEA = NCCOCCOCC(=O)O; Aib = CC(C)(N)C(=O)O

Tests used:
[1] = biological target: hGLP-1R (Homo sapiens, UniProt P43220); assay: Functional cAMP formation (HTRF) in HEK-293 clonal cells expressing hGLP-1R, 0.1% bovine casein, without or with 1.0% human serum albumin; type: cell-based; parameters: expressed in transfected cells; conditions: 37° C.; for EC50: cAMP, read-out: hGLP-1R EC50, nM (SEM, n)
Sequence of hGLP-1R (P43220 24-463): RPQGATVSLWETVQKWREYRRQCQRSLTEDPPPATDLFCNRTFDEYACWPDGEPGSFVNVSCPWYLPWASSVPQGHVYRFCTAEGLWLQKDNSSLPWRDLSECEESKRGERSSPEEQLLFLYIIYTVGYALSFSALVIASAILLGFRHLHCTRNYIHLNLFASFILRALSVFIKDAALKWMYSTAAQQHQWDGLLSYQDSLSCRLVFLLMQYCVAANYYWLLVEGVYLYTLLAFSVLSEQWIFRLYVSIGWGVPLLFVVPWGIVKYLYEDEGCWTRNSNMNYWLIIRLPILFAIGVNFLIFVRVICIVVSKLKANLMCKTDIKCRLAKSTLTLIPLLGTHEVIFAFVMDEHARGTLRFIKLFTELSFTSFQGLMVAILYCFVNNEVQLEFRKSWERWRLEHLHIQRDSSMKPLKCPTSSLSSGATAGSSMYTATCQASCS
In short: (§1)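 Cells were stimulated with peptide for 30 min at 37° C, then intracellular cAMP was measured by competitive HTRF (665/620 nm ratio) and converted to nM using a cAMP standard curve. Relative EC50 and Emax came from four-parameter logistic fits of percent maximal response against peptide concentration.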

[2] = biological target: T1, hGCGR (Homo sapiens, UniProt P47871); assay: Functional cAMP formation (HTRF) in HEK-293 clonal cells expressing hGCGR, 0.1% bovine casein, without or with 1.0% human serum albumin; type: cell-based; conditions: cAMP, 37° C., read-out: hGCGR EC50, nM (SEM, n)
T1 construct: expressed in transfected cells
T1 sequence (P47871 26-477): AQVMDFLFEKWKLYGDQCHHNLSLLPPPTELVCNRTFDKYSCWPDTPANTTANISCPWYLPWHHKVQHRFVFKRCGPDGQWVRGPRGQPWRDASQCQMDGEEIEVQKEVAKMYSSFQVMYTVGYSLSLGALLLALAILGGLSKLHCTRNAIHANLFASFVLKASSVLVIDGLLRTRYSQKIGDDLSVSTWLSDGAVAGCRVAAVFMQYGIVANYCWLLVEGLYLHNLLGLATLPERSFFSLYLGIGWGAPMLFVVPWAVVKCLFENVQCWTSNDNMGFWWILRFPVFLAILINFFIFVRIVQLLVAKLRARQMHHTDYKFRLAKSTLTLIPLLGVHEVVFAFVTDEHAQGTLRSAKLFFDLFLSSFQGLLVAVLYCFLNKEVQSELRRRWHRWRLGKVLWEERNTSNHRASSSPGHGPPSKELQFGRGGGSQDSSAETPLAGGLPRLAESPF
In short: as §1

[3] = biological target: T2, hGIPR (Homo sapiens, UniProt P48546); assay: Functional cAMP formation (HTRF) in HEK-293 clonal cells expressing hGIPR, 0.1% bovine casein, without or with 1.0% human serum albumin; type: cell-based; conditions: cAMP, 37° C., 0.1% bovine casein (no human serum albumin); geometric mean; read-out: hGIPR EC50, nM (SEM, n)
T2 construct: expressed in transfected cells
T2 sequence (P48546 22-466): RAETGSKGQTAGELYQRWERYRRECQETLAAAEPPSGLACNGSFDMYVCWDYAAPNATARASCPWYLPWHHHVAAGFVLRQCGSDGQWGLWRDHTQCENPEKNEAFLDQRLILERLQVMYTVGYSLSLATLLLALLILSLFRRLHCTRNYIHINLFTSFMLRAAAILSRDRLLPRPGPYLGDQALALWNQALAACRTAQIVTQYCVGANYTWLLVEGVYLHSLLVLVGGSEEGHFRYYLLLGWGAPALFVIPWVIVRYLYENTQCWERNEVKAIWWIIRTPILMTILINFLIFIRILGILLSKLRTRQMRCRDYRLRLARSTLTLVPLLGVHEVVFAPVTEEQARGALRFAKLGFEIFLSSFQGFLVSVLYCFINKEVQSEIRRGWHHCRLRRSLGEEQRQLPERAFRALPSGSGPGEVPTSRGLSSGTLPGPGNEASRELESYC
In short: as §1

[4] = biological target: T3, human GIP receptor (human) (UniProt P48546); assay: cell-based or functional assay
T3 sequence (looked up): T2 sequence (P48546 22-466)

[5] = biological target: T4, human GIP receptor (human, UniProt P48546 22-466); assay: cell-based or functional assay
T4 sequence (looked up): T2 sequence (P48546 22-466)

[6] = biological target: human GLP-1 receptor (human, UniProt P43220 24-463); assay: cell-based or functional assay
[7] = biological target: human GLP-1 receptor (human, UniProt P43220 24-463); assay: cell-based or functional assay; remark: listed apart in the source
[8] = biological target: T5, human GIP receptor (human, UniProt P48546 22-466); assay: cell-based or functional assay; remark: listed apart in the source
T5 sequence (looked up): T2 sequence (P48546 22-466)

[9] = 0.1% bovine casein (no human serum albumin), geometric mean
[10] = 0.1% bovine casein and 1.0% human serum albumin, geometric mean (SEM, n)

CC[C@H](C)[C@H](NC(=O)[C@H](CC(C)C)NC(=O)[C@](C)(Cc1ccc(O)cc1)NC(=O)[C@H](CCCCNC(=O)COCCOCCNC(=O)COCCOCCNC(=O)CC[C@H](NC(=O)CC[C@H](NC(=O)CCCCCCCCCCCCC(=O)O)C(=O)O)C(=O)O)NC(=O)[C@@H](NC(=O)[C@H](Cc1ccccc1)NC(=O)[C@H](CCCN)NC(=O)C(C)(C)NC(=O)[C@H](CCC(N)=O)NC(=O)[C@H](C)NC(=O)[C@H](CCC(N)=O)NC(=O)[C@H](CCCN)NC(=O)[C@H](CC(=O)O)NC(=O)[C@H](CC(C)C)NC(=O)[C@](C)(CC(C)C)NC(=O)[C@@H](NC(=O)C(C)(C)NC(=O)[C@H](Cc1ccc(O)cc1)NC(=O)[C@H](CC(=O)O)NC(=O)[C@H](CO)NC(=O)[C@@H](NC(=O)[C@](C)(Cc1ccccc1F)NC(=O)[C@@H](NC(=O)CNC(=O)[C@H](CCC(=O)O)NC(=O)C(C)(C)NC(=O)[C@@H](N)Cc1ccc(O)cc1)[C@@H](C)O)[C@@H](C)O)[C@@H](C)CC)[C@@H](C)CC)C(=O)N[C@@H](CCCCNC(=O)COCCOCCNC(=O)COCCOCCNC(=O)CC[C@H](NC(=O)CC[C@H](NC(=O)CCCCCCCCCCCCC(=O)O)C(=O)O)C(=O)O)C(=O)NCC(=O)NCC(=O)N1CCC[C@H]1C(=O)N[C@@H](CO)C(=O)N[C@@H](CO)C(=O)NCC(=O)N[C@@H](C)C(=O)N1CCC[C@H]1C(=O)N1CCC[C@H]1C(=O)N1CCC[C@H]1C(=O)N[C@@H](CO)C(N)=O [Example 480]
Emax ([1]; HEK293, cAMP, 0.1% bovine casein, percent of maximal response to GLP-1(7-36)NH2, arithmetic mean, read-out: hGLP-1R Emax, % ± SEM): 120%
EC50 [1, 9]: 0.124 nM
EC50 [1, 10]: 2.65 nM
EC50 [2, 9]: > 9950 nM
EC50 [2, 10]: > 9950 nM
EC50 [3]: 0.00955 nM

hGIP(1-42)NH2 (from UniProt P09681 52-93) (ligand)
Emax, cAMP [4]: 100%
cAMP EC50 (1.0% HSA) [4]: 0.597 nM
cAMP Emax (1.0% HSA) [4]: 98%

B1: Example 313 (peptide)
peptide: Y[Aib]EGT[αMePhe(2-F)]TSDV[Aib]I[αMeL]LD[Orn]IAQ[Aib]EFIK([AEEA-AEEA-γGlu-Undecanoyl(11-OPh(4-COOH))])[αMeY]LIK([AEEA-AEEA-γGlu-Undecanoyl(11-OPh(4-COOH))])GGPSSGAPPPS-NH2
cAMP EC50 (1.0% HSA) [5]: 21.9 nM
cAMP EC50 (1.0% HSA) [6]: 98.8 nM

B2: Example 304 (peptide)
peptide: Y[Aib]EGT[αMePhe(2-F)]TSDV[Aib]I[αMeL]LD[Orn]IAQ[Aib]EFIK([AEEA-AEEA-γGlu-C14 diacid])[αMeY]LIK([AEEA-AEEA-γGlu-C14 diacid])GGPSSGAPPPS-NH2
cAMP EC50 (1.0% HSA) [5]: 4.83 nM
cAMP EC50 (1.0% HSA) [6]: 64.2 nM

B3: Example 91 (peptide)
peptide: Y[Aib]EGT[αMePhe(2-F)]TSDV[Aib]I[αMeL]LD[Orn]K([AEEA-AEEA-γGlu-C14 diacid])AQ[Aib]EFI[dE][αMeY]LIEGGK([AEEA-AEEA-γGlu-C14 diacid])SSGAPPPS-NH2
modifications: N-terminus assumed
SMILES: CC[C@H](C)[C@H](NC(=O)[C@H](CC(C)C)NC(=O)[C@](C)(Cc1ccc(O)cc1)NC(=O)[C@@H](CCC(=O)O)NC(=O)[C@@H](NC(=O)[C@H](Cc1ccccc1)NC(=O)[C@H](CCC(=O)O)NC(=O)C(C)(C)NC(=O)[C@H](CCC(N)=O)NC(=O)[C@H](C)NC(=O)[C@H](CCCCNC(=O)COCCOCCNC(=O)COCCOCCNC(=O)CC[C@H](NC(=O)CCCCCCCCCCCCC(=O)O)C(=O)O)NC(=O)[C@H](CCCN)NC(=O)[C@H](CC(=O)O)NC(=O)[C@H](CC(C)C)NC(=O)[C@](C)(CC(C)C)NC(=O)[C@@H](NC(=O)C(C)(C)NC(=O)[C@@H](NC(=O)[C@H](CC(=O)O)NC(=O)[C@H](CO)NC(=O)[C@@H](NC(=O)[C@](C)(Cc1ccccc1F)NC(=O)[C@@H](NC(=O)CNC(=O)[C@H](CCC(=O)O)NC(=O)C(C)(C)NC(=O)[C@@H](N)Cc1ccc(O)cc1)[C@@H](C)O)[C@@H](C)O)C(C)C)[C@@H](C)CC)[C@@H](C)CC)C(=O)N[C@@H](CCC(=O)O)C(=O)NCC(=O)NCC(=O)N[C@@H](CCCCNC(=O)COCCOCCNC(=O)COCCOCCNC(=O)CC[C@H](NC(=O)CCCCCCCCCCCCC(=O)O)C(=O)O)C(=O)N[C@@H](CO)C(=O)N[C@@H](CO)C(=O)NCC(=O)N[C@@H](C)C(=O)N1CCC[C@H]1C(=O)N1CCC[C@H]1C(=O)N1CCC[C@H]1C(=O)N[C@@H](CO)C(N)=O
EC50, cAMP [7]: 0.153 nM
Emax, cAMP [7]: 94%
EC50, cAMP [8]: 0.0739 nM
Emax, cAMP [8]: 92.8%

B4: Example 308 (peptide)
peptide: Y[Aib]EGT[αMePhe(2-F)]TSDV[Aib]I[αMeL]LD[Orn]IAQ[Aib]EFIK([AEEA-AEEA-γGlu-Decanoyl(10-(4-HOOC-PhO))])[αMeY]LIK([AEEA-AEEA-γGlu-Decanoyl(10-(4-HOOC-PhO))])GGPSSGAPPPS-NH2
cAMP EC50 (1.0% HSA) [5]: 10.5 nM
cAMP EC50 (1.0% HSA) [6]: 67.3 nM

B5: Example 305 (peptide)
peptide: Y[Aib]EGT[αMePhe(2-F)]TSDV[αMeS]I[αMeL]LD[Orn]IAQ[Aib]EFIK([AEEA-AEEA-γGlu-C14 diacid])[αMeY]LIK([AEEA-AEEA-γGlu-C14 diacid])GGPSSGAPPPS-NH2
modifications: N-terminus assumed
SMILES: CC[C@H](C)[C@H](NC(=O)[C@H](CCCN)NC(=O)[C@H](CC(=O)O)NC(=O)[C@H](CC(C)C)NC(=O)[C@](C)(CC(C)C)NC(=O)[C@@H](NC(=O)[C@](C)(CO)NC(=O)[C@@H](NC(=O)[C@H](CC(=O)O)NC(=O)[C@H](CO)NC(=O)[C@@H](NC(=O)[C@](C)(Cc1ccccc1F)NC(=O)[C@@H](NC(=O)CNC(=O)[C@H](CCC(=O)O)NC(=O)C(C)(C)NC(=O)[C@@H](N)Cc1ccc(O)cc1)[C@@H](C)O)[C@@H](C)O)C(C)C)[C@@H](C)CC)C(=O)N[C@@H](C)C(=O)N[C@@H](CCC(N)=O)C(=O)NC(C)(C)C(=O)N[C@@H](CCC(=O)O)C(=O)N[C@@H](Cc1ccccc1)C(=O)N[C@H](C(=O)N[C@@H](CCCCNC(=O)COCCOCCNC(=O)COCCOCCNC(=O)CC[C@H](NC(=O)CCCCCCCCCCCCC(=O)O)C(=O)O)C(=O)N[C@@](C)(Cc1ccc(O)cc1)C(=O)N[C@@H](CC(C)C)C(=O)N[C@H](C(=O)N[C@@H](CCCCNC(=O)COCCOCCNC(=O)COCCOCCNC(=O)CC[C@H](NC(=O)CCCCCCCCCCCCC(=O)O)C(=O)O)C(=O)NCC(=O)NCC(=O)N1CCC[C@H]1C(=O)N[C@@H](CO)C(=O)N[C@@H](CO)C(=O)NCC(=O)N[C@@H](C)C(=O)N1CCC[C@H]1C(=O)N1CCC[C@H]1C(=O)N1CCC[C@H]1C(=O)N[C@@H](CO)C(N)=O)[C@@H](C)CC)[C@@H](C)CC
cAMP EC50 (1.0% HSA) [5]: 4.34 nM
cAMP EC50 (1.0% HSA) [6]: 80.3 nM
cAMP Emax (1.0% HSA) [6]: 125%

B6: Example 339 (peptide)
peptide: YXEGTXTSDXXIXLDXIAQXEFIKXLIKGGPSSGAPPPS
modifications: Y-Aib-EGT-αMeF(2F)-TSD-4Pal-Aib-I-αMeL-LD-Orn-IAQ-Aib-EFIK((2-[2-(2-Amino-ethoxy)-ethoxy]-acetyl)-(γ-Glu)-CO-(CH2)12-CO2H)-αMeY-LIK((2-[2-(2-Amino-ethoxy)-ethoxy]-acetyl)-(γ-Glu)-CO-(CH2)12-CO2H)GGPSSGAPPPS-NH2
cAMP EC50 (1.0% HSA) [5]: 4.35 nM
cAMP EC50 (1.0% HSA) [6]: 68.2 nM
cAMP Emax (1.0% HSA) [6]: 115%

B7: Example 309 (peptide)
peptide: Y[Aib]EGT[αMePhe(2-F)]TSDV[αMeS]I[αMeL]LD[Orn]IAQ[Aib]EFIK([AEEA-AEEA-γGlu-Decanoyl(10-(4-HOOC-PhO))])[αMeY]LIK([AEEA-AEEA-γGlu-Decanoyl(10-(4-HOOC-PhO))])GGPSSGAPPPS-NH2
cAMP EC50 (1.0% HSA) [5]: 6.08 nM
cAMP EC50 (1.0% HSA) [6]: 64.6 nM
